Assay results reported in doi:10.1101/555623.

Assays:
[1] = target: BRCA1 tBRCT L1701K mutant (human) (UniProt P38398); experiment: MST
[2] = target: BRCA1 tBRCT F1662R mutant (human) (UniProt P38398); experiment: MST

Kd [1]: 1960 nM
Kd [2]: 860 nM
Substance: BACH1 phosphopeptide
